Measurements published in article PMC5118228 (EJNMMI Research, 2016).
Where two headings read alike, the source gives them in different places.

What was measured:
nontumor-bearing mice = assay type: in vivo; conditions: for median survival / MTD: nontumor-bearing mice; for survival rate at 90 days post-treatment: n=8; for MTD: 90 days, n=8/cohort
Method: MTD was defined as the highest dose given to the animals allowing 100% survival with no significant weight loss >15% throughout the experiment. Nontumor-bearing mice were randomly divided into seven cohorts used to evaluate MTD, six treatments and one control (n = 8/cohort); see Table 1. […] Control mice received DOTATATE (4 × 0.3 nmol) on four consecutive days. The animals were followed for 90 days. Serum was analyzed for the biomarker neutrophil gelatinase-associated lipocalin (NGAL) using ELISA (R&D Systems, 450 nm).

in vivo = conditions: male, athymic nu/nu, mouse, iv, 0.3 nmol, total radioactivity
[1] = system: tumor and normal organs of mice; experiment: Radiation dosimetry (MIRD schema, Olinda/EXM spherical S-factors); assay type: in vivo; conditions: for mean radiation absorbed tumor dose: predicted from ^111In-DOTATATE tumor uptake, AR42J tumor-bearing mice; for mean radiation absorbed dose for femur: high-dose cohort
Method: Saturation of receptor-specific tumor uptake was investigated by determining the kinetics of the tumor uptake with increasing injected mass of peptide. The time-activity curves for the tumor and normal organs were fitted by single-exponential functions using Prism-5 (GraphPad). Goodness of fit was analyzed with the Pearson correlation coefficient R ^2 > 0.8. Both F test and the Aikake information criterion were used to decide on the complexity of the curves.
Dosimetry was performed according to the MIRD schema by using the spherical nodes S-factors from the Olinda/EXM software. S-factors were interpolated from the actual weight of the organs and tissue. All organs and tissue were assumed to be spherical with a density of […]. Mean radiation absorbed doses were obtained as a function-injected mass of peptide, assuming a homogeneous distribution in the tumor and organs. […] Owing to the short path length of α-particles, only the self-dose within each organ was included. The threshold for lethality was determined with renal absorbed dose and injected activity as indicators. Logistic regression analysis was used to determine the LD50 for presumed renal toxicity-related death.

[2] = with L-lysine (35 mg), tumor-bearing mice, calculated

## C[C@@H](O)[C@H](NC(=O)[C@@H]1CSSC[C@H](NC(=O)[C@@H](Cc2ccccc2)NC(=O)CN2CCN(CC(=O)O)CCN(CC(=O)O)CCN(CC(=O)O)CC2)C(=O)N[C@@H](Cc2ccc(O)cc2)C(=O)N[C@H](Cc2c[nH]c3ccccc23)C(=O)N[C@@H](CCCCN)C(=O)N[C@@H]([C@@H](C)O)C(=O)N1)C(=O)O [^213Bi-DOTATATE, metal not drawn]
nontumor-bearing mice; all treated cohorts except the high-dose without L-lysine
  median survival: > 90 days
nontumor-bearing mice; high-dose without L-lysine, 28.7 ± 1.2 MBq
  median survival: 24 days
nontumor-bearing mice; high-dose(+), 28.3 ± 0.8 MBq, with L-lysine
  survival rate at 90 days post-treatment: 75%
nontumor-bearing mice; high-dose(−), 28.7 ± 1.2 MBq, without L-lysine
  survival rate at 90 days post-treatment: 0%
nontumor-bearing mice; in absence of L-lysine
  MTD: < 13.0 ± 1.6 MBq
nontumor-bearing mice; low-dose(+), 13.2 ± 0.9 MBq, with L-lysine
  survival rate at 90 days post-treatment: 100%
nontumor-bearing mice; low-dose(−), 13.0 ± 1.6 MBq, without L-lysine
  survival rate at 90 days post-treatment: 87.5%
nontumor-bearing mice; medium-dose(+), 21.7 ± 1.9 MBq, with L-lysine
  survival rate at 90 days post-treatment: 100%
nontumor-bearing mice; medium-dose(−), 20.7 ± 0.8 MBq, without L-lysine
  survival rate at 90 days post-treatment: 62.5%
nontumor-bearing mice; with L-lysine renal protection (35 mg i.p.)
  MTD: 21.7 ± 1.9 MBq
In vivo; Renal activity
  tissue uptake at 1 h: 17.4 ± 2.2 %ID/g
In vivo; Tumor uptake
  tissue uptake at 10 min: 5.3 ± 2.8 %ID/g
  tissue uptake at 1 h: 6.5 ± 2.3 %ID/g
[1]; 0.1 nmol peptide
  mean radiation absorbed tumor dose: approximately 0.5 Gy/MBq
[1]; 0.3 nmol peptide
  mean radiation absorbed tumor dose: approximately 0.5 Gy/MBq
[1]; with pre-treatment of L-lysine
  mean radiation absorbed dose for femur: 1.3 Gy
[1]; without L-lysine
  mean radiation absorbed dose for femur: 1.0 Gy
[1]; high-dose(+) cohort, 28.3 ± 0.8 MBq
  mean renal absorbed dose: 16 Gy
[1]; mice pre-treated with L-lysine
  time-integrated activity coefficient in the kidney: 6.0 ± 2.4 min/g
[1]; mice without pre-treatment of L-lysine
  time-integrated activity coefficient in the kidney: 12.0 ± 3.7 min/g
[1]; nontumor-bearing animals, with L-lysine
  renal absorbed dose: 0.50 Gy/MBq
[1]; nontumor-bearing animals, without L-lysine
  renal absorbed dose: 1.0 Gy/MBq
[1]; tumor-bearing animals, with L-lysine
  renal absorbed dose: 0.56 Gy/MBq
[1]; tumor-bearing animals, without L-lysine
  renal absorbed dose: 1.1 Gy/MBq
[1]; [2]
  Radiation absorbed dose per administered activity, Adrenals, Total α: 5.60E-02 Gy/MBq
  Radiation absorbed dose per administered activity, Adrenals, Total β: 2.00E-03 Gy/MBq
  Radiation absorbed dose per administered activity, Adrenals, ^209Pb β: 1.30E-04 Gy/MBq
  Radiation absorbed dose per administered activity, Adrenals, ^209Tl β + γ: 4.00E-05 Gy/MBq
  Radiation absorbed dose per administered activity, Adrenals, ^213Bi α: 8.00E-04 Gy/MBq
  Radiation absorbed dose per administered activity, Adrenals, ^213Bi β: 1.80E-03 Gy/MBq
  Radiation absorbed dose per administered activity, Adrenals, ^213Po α: 5.49E-02 Gy/MBq
  Radiation absorbed dose per administered activity, Blood, Total α: 1.09E-01 Gy/MBq
  Radiation absorbed dose per administered activity, Blood, Total β: 6.00E-03 Gy/MBq
  Radiation absorbed dose per administered activity, Blood, ^209Pb β: 2.00E-04 Gy/MBq
  Radiation absorbed dose per administered activity, Blood, ^209Tl β + γ: 1.40E-04 Gy/MBq
  Radiation absorbed dose per administered activity, Blood, ^213Bi α: 1.60E-03 Gy/MBq
  Radiation absorbed dose per administered activity, Blood, ^213Bi β: 5.20E-03 Gy/MBq
  Radiation absorbed dose per administered activity, Femur, Total α: 4.20E-02 Gy/MBq
  Radiation absorbed dose per administered activity, Femur, Total β: 2.00E-03 Gy/MBq
  Radiation absorbed dose per administered activity, Femur, ^209Pb β: 1.00E-04 Gy/MBq
  Radiation absorbed dose per administered activity, Femur, ^209Tl β + γ: 4.00E-05 Gy/MBq
  Radiation absorbed dose per administered activity, Femur, ^213Bi α: 6.00E-04 Gy/MBq
  Radiation absorbed dose per administered activity, Femur, ^213Bi β: 1.60E-03 Gy/MBq
  Radiation absorbed dose per administered activity, Femur, ^213Po α: 4.13E-02 Gy/MBq
  Radiation absorbed dose per administered activity, Kidney, Total α: 5.33E-01 Gy/MBq
  Radiation absorbed dose per administered activity, Kidney, Total β: 2.60E-02 Gy/MBq
  Radiation absorbed dose per administered activity, Kidney, ^209Pb β: 1.40E-03 Gy/MBq
  Radiation absorbed dose per administered activity, Kidney, ^209Tl β + γ: 6.30E-04 Gy/MBq
  Radiation absorbed dose per administered activity, Kidney, ^213Bi α: 8.00E-03 Gy/MBq
  Radiation absorbed dose per administered activity, Kidney, ^213Bi β: 2.37E-02 Gy/MBq
  Radiation absorbed dose per administered activity, Kidney, ^213Po α: 5.25E-01 Gy/MBq
  Radiation absorbed dose per administered activity, Pancreas, Total α: 1.36E-01 Gy/MBq
  Radiation absorbed dose per administered activity, Pancreas, Total β: 5.00E-03 Gy/MBq
  Radiation absorbed dose per administered activity, Pancreas, ^209Pb β: 8.90E-04 Gy/MBq
  Radiation absorbed dose per administered activity, Pancreas, ^209Tl β + γ: 1.00E-04 Gy/MBq
  Radiation absorbed dose per administered activity, Pancreas, ^213Bi α: 2.00E-03 Gy/MBq
  Radiation absorbed dose per administered activity, Pancreas, ^213Bi β: 4.50E-03 Gy/MBq
  Radiation absorbed dose per administered activity, Pancreas, ^213Po α: 1.34E-01 Gy/MBq
  Radiation absorbed dose per administered activity, Stomach, Total α: 6.10E-02 Gy/MBq
  Radiation absorbed dose per administered activity, Stomach, Total β: 3.00E-03 Gy/MBq
  Radiation absorbed dose per administered activity, Stomach, ^209Pb β: 2.20E-04 Gy/MBq
